Laboratory results from IntAct's records for PubMed 20881132.

Target: sgg_drome sgg (UniProt P18431)
Sequence of UniProt P18431 (P18431 whole entry): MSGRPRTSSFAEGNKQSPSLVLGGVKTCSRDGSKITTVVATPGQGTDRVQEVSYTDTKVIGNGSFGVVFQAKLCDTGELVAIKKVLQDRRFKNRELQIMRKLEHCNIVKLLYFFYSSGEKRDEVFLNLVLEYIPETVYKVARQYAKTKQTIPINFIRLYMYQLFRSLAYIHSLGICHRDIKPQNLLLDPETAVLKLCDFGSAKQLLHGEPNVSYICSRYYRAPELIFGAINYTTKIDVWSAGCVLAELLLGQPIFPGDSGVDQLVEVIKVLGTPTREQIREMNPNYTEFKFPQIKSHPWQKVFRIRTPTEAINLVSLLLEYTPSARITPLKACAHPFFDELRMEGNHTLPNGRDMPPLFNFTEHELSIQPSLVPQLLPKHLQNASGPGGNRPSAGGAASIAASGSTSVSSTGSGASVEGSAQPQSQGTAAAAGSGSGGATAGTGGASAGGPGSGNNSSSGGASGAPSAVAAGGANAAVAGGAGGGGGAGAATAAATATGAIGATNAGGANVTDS

Substance: Leucine-rich repeat serine/threonine-protein kinase 2 (Homo sapiens), Q5S007 G2019S
- effect of a mutation on the interaction: increasing interaction
